In the supplement of paper PMC9170038:

Columns and labels:
MS2 coat protein [1] = test: apparent KD of MS2 coat protein, switch ON state; designed switch direction (-1 OFF switch, 1 ON switch): -1; higher = weaker reporter binding; conditions: FMN input: 0 or 200 uM; Eterna round: R93 (includes R88 designs)
Summary of the method: (§1)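 For every design, apparent KD is the median of normalised binding-curve fits from its clusters. The RNA switches were transcribed on-chip from Illumina sequencing clusters and titrated with SNAP-549-labelled MS2 coat protein (twofold steps, 0.7 or 1.5 nM to 3 µM; 0.8–1.5 h to 10–20 min per step). Titrations used 100 mM Tris-HCl pH 7.5, 80 mM KCl, 4 mM MgCl2, without or with constant ligand.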

MS2 coat protein [2] = test: apparent KD of MS2 coat protein, switch OFF state (with FMN for OFF switches, without FMN for ON switches); designed switch direction (-1 OFF switch, 1 ON switch): -1; higher = weaker reporter binding; conditions: FMN input: 0 or 200 uM; Eterna round: R93 (includes R88 designs)
Summary of the method: as §1

Sequence: AAAAAGUGAGGAUAUGUCAAAAGUCACAAAAGUGACAAAAGACAGAAGGCACAUGAGGAUCACCCAUGUGGAAA [Mod of Eli - Late G + early G segment 2]
- apparent KD of MS2 coat protein (MS2 coat protein [1]): 32.1 nM
- apparent KD of MS2 coat protein (MS2 coat protein [2]): 28.6 nM

Sequence: AAAAAGUGAGGAUAUGUCAAAAGUCACAAAAGUGACAAAAGACAGAAGGCACAUGAGGAUCACCCAUGUGGGAA [Mod of Eli - Late G + early G segment 1]
- apparent KD of MS2 coat protein (MS2 coat protein [1]): 56.1 nM
- apparent KD of MS2 coat protein (MS2 coat protein [2]): 121 nM

Sequence: AAAAAGUGAGGAUAUUCGGAUAGGAAAACGAAAACCUAUCCGAAGAAGGCACAUGAGGAUCACCCAUGUGGAAA [67% Ecls-II - Early G + late G segment 2]
- apparent KD of MS2 coat protein (MS2 coat protein [1]): 22.6 nM
- apparent KD of MS2 coat protein (MS2 coat protein [2]): 27.6 nM

Sequence: AAAAAUGGAGGAUAUACAUGAGGAUCACCCAUGUGUAACUAUACUAAGCACUCCUCACGUAGAAGGCCAAAAAA [Gilly Gone Silly 13 - Jieux - Exclusion 3]
- apparent KD of MS2 coat protein (MS2 coat protein [1]): 55.3 nM
- apparent KD of MS2 coat protein (MS2 coat protein [2]): 113 nM

Sequence: AAAACACAUGAGGAUCACCCAUGUGAGGAUAUGAACGAAAAUAAAUAAAAAUAAAAGUUCAGAAGGCACAAAAA [66%, Wbt, 11]
- apparent KD of MS2 coat protein (MS2 coat protein [1]): 24.2 nM
- apparent KD of MS2 coat protein (MS2 coat protein [2]): 36.1 nM

Sequence: AAAACACAUGAGGAUCACCCAUGUGAGGAUAUGCUAUGGAAAAUAAAAAUAAAACAUAGCAGAAGGCACAAAAA [Denovo 12]
- apparent KD of MS2 coat protein (MS2 coat protein [1]): 20.3 nM
- apparent KD of MS2 coat protein (MS2 coat protein [2]): 32.3 nM

Sequence: AAAACACAUGAGGAUCACCCAUGUGAGGAUAUGCUAUGGAAAUAAAAAAUAAAACAUAGCAGAAGGCACAAGGA [Mat - Exclusion 1 - Eli mod - D45]
- apparent KD of MS2 coat protein (MS2 coat protein [1]): 31.1 nM
- apparent KD of MS2 coat protein (MS2 coat protein [2]): 49.1 nM

Sequence: AAAACGGUAGGAUAUACGAUUUGGAACUAAACCGAGGAACCACAUGAGGAUCACCCAUGUAGAAGGGCCAAAAA [Mat - Exclusion 2 - JL mod - D81]
- apparent KD of MS2 coat protein (MS2 coat protein [1]): 18.4 nM
- apparent KD of MS2 coat protein (MS2 coat protein [2]): 14.7 nM

Sequence: AAAACGGUAGGAUAUACGAUUUGGAACUAGACCGAGGAACCACAUGAGGAUCACCCAUGUAGAAGGGCCAAAAA [EX2 Malc#17]
- apparent KD of MS2 coat protein (MS2 coat protein [1]): 15.6 nM
- apparent KD of MS2 coat protein (MS2 coat protein [2]): 10.7 nM

Sequence: AAAAGCUCAGGAUAUACGGUCUGUUGUUGAGAAAUAAAAAAACAUGAGGAUCACCCAUGUAGAAGGGAGCGAAA [Exclusion2-cac3]
- apparent KD of MS2 coat protein (MS2 coat protein [1]): 44.4 nM
- apparent KD of MS2 coat protein (MS2 coat protein [2]): 111 nM

Sequence: AAAAGGUCAGGAUAUACAAAAAAAAAAAAAAAAAAAAAAAAGUAGAAGGGACAUGAGGAUCACCCAUGUGAAAA [Exclusion 4 - Omei 2]
- apparent KD of MS2 coat protein (MS2 coat protein [1]): 64 nM
- apparent KD of MS2 coat protein (MS2 coat protein [2]): 40.3 nM

Sequence: AAAAGUCGAGGAUAUGCAAAAUGAUUGCGAAAGCAAUCAAAACAUGAGGAUCACCCAUGUAGAAGGCGACAAAA [Fiskers Exclusion 2 D3]
- apparent KD of MS2 coat protein (MS2 coat protein [1]): 19.6 nM
- apparent KD of MS2 coat protein (MS2 coat protein [2]): 11.1 nM

Sequence: AAAAGUUCAGGAUAUACAUGAGGAUCACCCAUGUAGAAAGGAAGUGUAAAAAAAAAGUGUAGAAGGGAGCAUGA [MS2 Riboswitches On Chip Exclusion 3 wbt2]
- apparent KD of MS2 coat protein (MS2 coat protein [1]): 22.2 nM
- apparent KD of MS2 coat protein (MS2 coat protein [2]): 21.8 nM

Sequence: AAAAUACAUGAGGAUCACCCAUGUCAGGAUAUUCCUGCAGCCUUGAAUAAGGGCUGGUGAAGAAGGGACGGUGA [Ancele]
- apparent KD of MS2 coat protein (MS2 coat protein [1]): 33.4 nM
- apparent KD of MS2 coat protein (MS2 coat protein [2]): 84.6 nM

Sequence: AAAAUACAUGAGGAUCACCCAUGUGAGGAUAUCUUAAAGGGAAUAAAAUAACUCAAAAAGAGAAGGCACAAAAA [Ex 1 May 29]
- apparent KD of MS2 coat protein (MS2 coat protein [1]): 35.8 nM
- apparent KD of MS2 coat protein (MS2 coat protein [2]): 44 nM

Sequence: AAAAUACAUGAGGAUCACCCAUGUGAGGAUAUCUUAAAGGGAAUAAAAUAACUCAAAAAGAGAAGGCGCAAAAA [Ex 1 May 30]
- apparent KD of MS2 coat protein (MS2 coat protein [1]): 34.6 nM
- apparent KD of MS2 coat protein (MS2 coat protein [2]): 32 nM

Sequence: AAAAUGUCAGGAUAUGCGAAGGCAUCUGACAGAUGAGGAUUGCAGAAGGGACAUGAGGAUCACCCAUGUAAAAA
- apparent KD of MS2 coat protein (MS2 coat protein [1]): 66.7 nM
- apparent KD of MS2 coat protein (MS2 coat protein [2]): 41.7 nM

Sequence: AAACCACAUGAGGAUCACCCAUGUGAGGAUAUGAACGAAAUAAAAUAAAAAAUAAAGUUCAGAAGGCACAAAAA [Mat - Exclusion 1 - Eli mod - D15]
- apparent KD of MS2 coat protein (MS2 coat protein [1]): 17.6 nM
- apparent KD of MS2 coat protein (MS2 coat protein [2]): 22.9 nM

Sequence: AAACGUUGAGGAUAUACAAAAGGGUAUAAAUCAAAAAAAACACAUGAGGAUCACCCAUGUAGAAGGCAACGAAA
- apparent KD of MS2 coat protein (MS2 coat protein [1]): 128 nM
- apparent KD of MS2 coat protein (MS2 coat protein [2]): 65.6 nM

Sequence: AAACGUUGAGGAUAUACGAAAAAGGGUAGGUCAAAUAAAACACAUGAGGAUCACCCAUGUAGAAGGCAACGAAA
- apparent KD of MS2 coat protein (MS2 coat protein [1]): 333 nM
- apparent KD of MS2 coat protein (MS2 coat protein [2]): 3.66 nM

Sequence: AAAGGACGAGGAUAUACAUGAGGAUCACCCAUGUAAAAAACAUAAGAAAAGAAGUUAUGUAGAAGGCGUCCAAA [69%, Moding Meechl, 13]
- apparent KD of MS2 coat protein (MS2 coat protein [1]): 16.4 nM
- apparent KD of MS2 coat protein (MS2 coat protein [2]): 17.3 nM

Sequence: AAAGGAUCAGGAUAUGUGUGGGAAAAGUGUGUCCAAAAAAAACAUGAGGAUCACCCAUGUAGAAGGGAUCCAAA [Mod 6 of Normal (20/19) by Nando, Round 1]
- apparent KD of MS2 coat protein (MS2 coat protein [1]): 487 nM
- apparent KD of MS2 coat protein (MS2 coat protein [2]): 265 nM

Sequence: AAAGGGCGAGGAUAUACAUGAGGAUCACCCAUGUAAAAAACAUAAUAAAAGAAUUUAUGUAGAAGGCGCCCAAA [Ruby 60]
- apparent KD of MS2 coat protein (MS2 coat protein [1]): 15.2 nM
- apparent KD of MS2 coat protein (MS2 coat protein [2]): 14.4 nM

Sequence: AAAGGGUCAGGAUAUCGAUUAAUAAUAAAAUAAAUGAAGAUCGAGAAGGGACAUGAGGAUCACCCAUGUAUAAC [May 79]
- apparent KD of MS2 coat protein (MS2 coat protein [1]): 41.8 nM
- apparent KD of MS2 coat protein (MS2 coat protein [2]): 64.6 nM

Sequence: AAAGGGUCAGGAUAUGCACGAACAACAAAACAAAUAACGAUGCAGAAGGGACAUGAGGAUCACCCAUGUAUAAA [May 75]
- apparent KD of MS2 coat protein (MS2 coat protein [1]): 33.4 nM
- apparent KD of MS2 coat protein (MS2 coat protein [2]): 52.1 nM

Sequence: AAAGUGCAAGGAUAUAUAUGAAAAGUUACGAAAGUAACAAAACAUGAGGAUCACCCAUGUAGAAGGUGCACAAA [Seclusion (MS2 riboswitches - Exlclusion 2)]
- apparent KD of MS2 coat protein (MS2 coat protein [1]): 24.6 nM
- apparent KD of MS2 coat protein (MS2 coat protein [2]): 18.3 nM

Sequence: AAAGUGUAAGGAUAUCUGAAAGGACACGAAAGUGACAAAGAAGAGAAGGUACAUGAGGAUCACCCAUGUAAAAA [milkweed 21]
- apparent KD of MS2 coat protein (MS2 coat protein [1]): 28.7 nM
- apparent KD of MS2 coat protein (MS2 coat protein [2]): 18.1 nM

Sequence: AAAUAGCAAGGAUAUACAUGAGGAUCACCCAUGUAAGGAUGAUACGUAAUAGAAGAAAGUAGAAGGUGCAAAUA [Ex 3 Tesla 6]
- apparent KD of MS2 coat protein (MS2 coat protein [1]): 42.8 nM
- apparent KD of MS2 coat protein (MS2 coat protein [2]): 148 nM

Sequence: AAAUAGGCAGGAUAUACAUGAAAAUUAAAAAAAAAAAAAAAACAUGAGGAUCACCCAUGUAGAAGGGUCAAAAA [Exclusion 2 - Omei 2]
- apparent KD of MS2 coat protein (MS2 coat protein [1]): 74.2 nM
- apparent KD of MS2 coat protein (MS2 coat protein [2]): 80.3 nM

Sequence: AAAUGACUAGGAUAUACAUGAGGAUCACCCAUGUGUAUAAAUAAAUACACAAAAGAAAGUAGAAGGAGUCAAAA [Ex 3 May 14]
- apparent KD of MS2 coat protein (MS2 coat protein [1]): 15.8 nM
- apparent KD of MS2 coat protein (MS2 coat protein [2]): 88.2 nM

Sequence: AAAUUGUCAGGAUAUCCAGCUAUACGAAAUAUAUAUACACGGGAGAAGGGACAUGAGGAUCACCCAUGUUUGAA [JR_Exc004_Sub702]
- apparent KD of MS2 coat protein (MS2 coat protein [1]): 34 nM
- apparent KD of MS2 coat protein (MS2 coat protein [2]): 27.6 nM

Sequence: AAAUUGUCAGGAUAUCCUAUAAUAAUAAAAUAGAGGAGAUAGGAGAAGGGACAUGAGGAUCACCCAUGUAAAAC [May 85]
- apparent KD of MS2 coat protein (MS2 coat protein [1]): 37.7 nM
- apparent KD of MS2 coat protein (MS2 coat protein [2]): 31.2 nM

Sequence: AAAUUGUGAGGAUAUCUGGAUAGGAAAAAGAAAACCUAUCCAGAGAAGGCACAUGAGGAUCACCCAUGUAAAAA [JL cataway mod 5]
- apparent KD of MS2 coat protein (MS2 coat protein [1]): 61.7 nM
- apparent KD of MS2 coat protein (MS2 coat protein [2]): 96.8 nM

Sequence: AACAAACAUGAGGAUCACCCAUGUCAGGAUAUGCAAAUAACAAACAACAAACAACAAAGCAGAAGGGACGACAA [Mat - Exclusion 1 - Eli mod - D51]
- apparent KD of MS2 coat protein (MS2 coat protein [1]): 22.1 nM
- apparent KD of MS2 coat protein (MS2 coat protein [2]): 25.6 nM
